These results are taken from paper PMC10570377, “DARPins detect the formation of hetero-tetramers of p63 and p73 in epithelial tissues and in squamous cell carcinoma” (Cell Death & Disease, 2023).

First the molecules themselves.
B1: p63 oligomerization domain (OD), homo-tetramer (domain or fragment)
chain: DDELLYLPVRGRETYEMLLKIKESLELMQYLPQHTIETYRQQQQQQHQHLLQKQTSIQS
notes: p63 oligomerization domain (OD), wild type; also called p63 OD; p63 homo-OD; source: E. coli, purified; not shown: His10, N-terminal, cleaved

Data set [1] concerns the molecule itself. The experiment in a line: crystal structure; complexes of OD hetero-tetramer and DARPin mixed 1:2, isolated by SEC, sitting drop at 20 °C. A general note: SEC sorts molecules by how far they enter the pores of the column.
The target of data set [2] is B1. The experiment in a line: NMR titration; [15N,1H] BEST-TROSY spectra at 25 °C; equimolar mixture of unlabelled p63 OD and 15N-Lys-labelled p73 OD, DARPin added at one ratio (2.4:1); 20 mM K2HPO4 pH 7.8, 100 mM KCl, 0.5 mM EDTA. The settings on record: both partners purified.

On to B1, for which the binding result in data set [1] was “binds”.

B2: p73 oligomerization domain (OD), homo-tetramer (domain or fragment)
chain: DEDTYYLQVRGRENFEILMKLKESLELMELVPQPLVDSYRQQQQLLQR
notes: p73 oligomerization domain (OD), wild type; 15N-labelled on lysine for NMR; also called p73 OD; p73 homo-OD; source: E. coli, purified; not shown: His10, N-terminal, cleaved
On to B2, for which the binding result in data set [2] and in data set [1] was “binds” each time.

B3: p73 oligomerization domain E363K (domain or fragment, UniProt O15350 351-398, looked up)
chain: DEDTYYLQVRGRKNFEILMKLKESLELMELVPQPLVDSYRQQQQLLQR
notes: p73 oligomerization domain (OD), amino acids 351-398, E363K; The p73 chain of m3; also called p73 (amino acids 351–398, E363K); p73 OD E363K; source: E. coli BL21(DE3) Rosetta, purified; not shown: His10, N-terminal, cleaved
As to B3, in data set [1], the binding result is given as “binds”.
